Results reported in paper PMC10609148, “Hexa-Histidine, a Peptide with Versatile Applications in the Study of Amyloid-β(1–42) Molecular Mechanisms of Action” (Molecules, 2023).

Experiments:
[1] = molecular target: human recombinant cytochrome b5 reductase (Cb5R) with a His6-tag (human); assay: inhibition of enzyme activity (NADH-dependent Cb5 reductase activity); 0.11 μg/mL Cb5R with a His6-tag, 5 μM Cb5, 0.25 mM NADH, rising Aβ peptide; absorbance at 550 nm; 20 mM phosphate, 0.1 mM DTPA, pH 7, 25 °C; fit to one inhibitor binding site; in Aβ monomers
[2] = molecular target: human recombinant cytochrome b5 reductase (Cb5R) with a His6-tag (human); assay: other fluorescence titration; FAD fluorescence (ex 460 nm, em 520 nm) of 32 nM Cb5R with a His6-tag titrated with Aβ peptides; 20 mM phosphate, 0.1 mM DTPA, pH 7, 25 °C; one-site fit; apparent constant, in peptide monomers

With Aβ(25–35) (peptide) the Ki [1] was 50 to 60 nM, the EC50 [2] was 75 nM and the half-saturation constant in the fitted one-site equation [2] was 99.3.
